Biological target: T1, SurR (Pyrococcus furiosus, UniProt Q8U4J2 1-232)
T1 sequence: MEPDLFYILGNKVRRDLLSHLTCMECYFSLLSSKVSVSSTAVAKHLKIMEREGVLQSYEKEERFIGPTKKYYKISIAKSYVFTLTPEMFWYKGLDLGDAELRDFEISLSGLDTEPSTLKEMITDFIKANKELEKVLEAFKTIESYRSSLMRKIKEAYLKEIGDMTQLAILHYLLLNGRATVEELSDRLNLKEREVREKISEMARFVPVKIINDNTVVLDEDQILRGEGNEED
Test: EMSA

B1: SELEX-derived 40-bp probe GTTcacAAC (dsDNA)
DNA 1: GCTTCATCCGTGACGTTCACAACCAAATAGATTGAGGATC
DNA 2: GATCCTCAATCTATTTGGTTGTGAACGTCACGGATGAAGC
B1: binds.
